Assay results taken from PMC9127447.

Target: dynamin 2-K562E (baculovirus) (rat)
Assay: not stated; polymerization of recombinant (baculovirus) dynamin 2 with or without Bis-T-23; method in Supplementary Figures S2E, F

dynamin 2-K562E (baculovirus) (enzyme) was tested. Which fold increase of polymerization with Bis-T-23 against without Bis-T-23 did it give?
Its fold increase of polymerization with Bis-T-23 against without Bis-T-23 is 3.5 times.
